Experimental findings from US20240228604A1 (ALCHEMAB THERAPEUTICS, published 2024) are described below.

In assay [1] the target is T1, UNC5C recombinant human antigen, Fc-tagged (R&D Systems, #1005-UN) (human, UniProt O95185 41-380, limits assumed).
T1 construct: Bought protein; also called rhUNC5C; not shown: Fc tag of the bought protein
As to the kind of experiment: ELISA, antigen down. (An ELISA detects its analyte on a solid surface through an enzyme-linked reagent.)

Assay [2] concerns the target T2, Human recombinant UNC5B (BLI antigen) (Human, UniProt Q8IZJ1 27-377).
T2 construct: also called UNC5B ectodomain
As to the kind of experiment: BLI, antigen captured by His tag, antibody as analyte. The text has this: (§1) Antigen was loaded as ligand and dipped into antibody as analyte during association, and assay buffer during dissociation.
(§2) Purified recombinant antigens were purchased from a commercial supplier or prepared and purified in-house and details are shown in Table 2.

Assay [3] addresses T3, Human recombinant DCC (BLI antigen) (Human, UniProt P43146 26-1097).
T3 construct: also called Netrin receptor DCC ectodomain
The assay is described as above.
Description: as §1, §2

Assay [4] addresses T4, Human recombinant UNC5A (BLI antigen) (Human, UniProt Q6ZN44 26-306).
T4 construct: Captured by His tag; also called UNC5A ectodomain
Described as above.
Description: as §1, §2

In assay [5] the target is T5, Human Neogenin (R&D Systems catalogue number 8607-NE; BLI antigen) (Human, UniProt Q92859 34-1105).
T5 construct: extracellular domain; Bought protein; also called neogenin-1 ectodomain; NEO1
T5 sequence (looked up): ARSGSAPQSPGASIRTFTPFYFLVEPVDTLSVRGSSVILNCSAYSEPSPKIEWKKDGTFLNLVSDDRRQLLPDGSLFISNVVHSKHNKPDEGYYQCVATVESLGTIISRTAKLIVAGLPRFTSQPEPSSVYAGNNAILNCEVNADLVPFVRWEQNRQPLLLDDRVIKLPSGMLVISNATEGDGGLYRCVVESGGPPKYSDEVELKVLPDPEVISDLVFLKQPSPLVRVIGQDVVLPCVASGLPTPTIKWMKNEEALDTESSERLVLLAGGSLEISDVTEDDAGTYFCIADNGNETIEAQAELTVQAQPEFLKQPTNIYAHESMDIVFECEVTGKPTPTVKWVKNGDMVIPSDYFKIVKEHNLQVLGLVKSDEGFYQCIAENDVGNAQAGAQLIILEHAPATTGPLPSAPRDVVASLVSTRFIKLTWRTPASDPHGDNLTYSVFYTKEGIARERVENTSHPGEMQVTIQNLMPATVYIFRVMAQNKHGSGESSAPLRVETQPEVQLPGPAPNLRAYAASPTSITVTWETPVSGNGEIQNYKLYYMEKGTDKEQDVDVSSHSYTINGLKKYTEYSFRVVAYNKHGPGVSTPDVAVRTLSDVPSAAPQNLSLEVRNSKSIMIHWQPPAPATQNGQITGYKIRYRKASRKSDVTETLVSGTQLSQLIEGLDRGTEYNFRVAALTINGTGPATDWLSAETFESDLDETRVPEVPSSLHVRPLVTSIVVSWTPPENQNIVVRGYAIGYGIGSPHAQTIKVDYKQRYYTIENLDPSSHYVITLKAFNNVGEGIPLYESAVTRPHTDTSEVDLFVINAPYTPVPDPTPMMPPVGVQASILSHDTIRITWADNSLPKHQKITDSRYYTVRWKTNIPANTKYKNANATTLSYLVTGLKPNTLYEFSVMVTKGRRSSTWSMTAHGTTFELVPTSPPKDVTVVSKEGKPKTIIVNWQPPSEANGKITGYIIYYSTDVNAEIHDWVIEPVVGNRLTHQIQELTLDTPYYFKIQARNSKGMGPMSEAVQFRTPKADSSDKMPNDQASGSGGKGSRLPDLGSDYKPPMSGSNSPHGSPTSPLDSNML
The assay is described as above.
Description: as §1, §2

Assay [6] deals with T6, Human recombinant UNC5D (BLI antigen) (Human, UniProt Q6UXZ4 33-379).
T6 construct: also called UNC5D ectodomain
T6 sequence (Q6UXZ4 other isoform, or with tags, fused parts or gaps): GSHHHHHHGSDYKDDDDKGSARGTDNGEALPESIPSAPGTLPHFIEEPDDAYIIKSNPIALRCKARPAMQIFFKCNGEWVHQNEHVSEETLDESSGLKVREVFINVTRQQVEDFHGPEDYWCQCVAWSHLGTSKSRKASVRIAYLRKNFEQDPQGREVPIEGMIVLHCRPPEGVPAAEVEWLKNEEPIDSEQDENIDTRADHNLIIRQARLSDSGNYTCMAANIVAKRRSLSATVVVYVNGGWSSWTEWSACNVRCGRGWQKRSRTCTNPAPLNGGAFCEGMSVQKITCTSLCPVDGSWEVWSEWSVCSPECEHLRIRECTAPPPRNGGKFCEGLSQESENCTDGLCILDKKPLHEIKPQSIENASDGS
The description is as above.
Description: as §1, §2

Assay [7] deals with T7, full-length human UNC5D on fixed HEK293 cells (Retrogenix panel) (human, UniProt Q6UXZ4 33-953).
T7 construct: whole, on cells
T7 sequence (looked up): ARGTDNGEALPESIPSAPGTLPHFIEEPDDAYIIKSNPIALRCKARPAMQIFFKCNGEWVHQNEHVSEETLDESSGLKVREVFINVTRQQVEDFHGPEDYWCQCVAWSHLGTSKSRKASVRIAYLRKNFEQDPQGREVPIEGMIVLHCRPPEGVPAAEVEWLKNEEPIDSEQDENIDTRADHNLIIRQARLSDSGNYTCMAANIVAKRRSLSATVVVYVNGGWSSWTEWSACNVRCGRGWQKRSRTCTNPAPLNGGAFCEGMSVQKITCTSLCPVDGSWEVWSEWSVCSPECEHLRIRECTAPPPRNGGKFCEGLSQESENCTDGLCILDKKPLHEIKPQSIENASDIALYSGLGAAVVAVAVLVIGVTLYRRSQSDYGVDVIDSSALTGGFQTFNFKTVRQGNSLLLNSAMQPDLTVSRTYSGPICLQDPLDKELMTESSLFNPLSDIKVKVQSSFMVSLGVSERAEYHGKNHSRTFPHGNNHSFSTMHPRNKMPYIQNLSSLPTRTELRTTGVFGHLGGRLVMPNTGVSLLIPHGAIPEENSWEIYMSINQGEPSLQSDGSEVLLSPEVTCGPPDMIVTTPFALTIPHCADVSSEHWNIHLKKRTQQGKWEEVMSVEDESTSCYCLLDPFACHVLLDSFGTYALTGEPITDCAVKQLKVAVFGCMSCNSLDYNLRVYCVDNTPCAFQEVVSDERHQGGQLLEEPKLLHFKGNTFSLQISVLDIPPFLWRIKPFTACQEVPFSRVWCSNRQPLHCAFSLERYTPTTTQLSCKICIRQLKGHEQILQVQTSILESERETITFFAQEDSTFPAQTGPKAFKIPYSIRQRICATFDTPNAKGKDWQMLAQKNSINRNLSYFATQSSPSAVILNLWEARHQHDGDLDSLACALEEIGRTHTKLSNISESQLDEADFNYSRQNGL
The experiment in a line: Retrogenix cell microarray, fixed HEK293 cells.

T4 sequence (Q6ZN44 other isoform, or with tags, fused parts or gaps): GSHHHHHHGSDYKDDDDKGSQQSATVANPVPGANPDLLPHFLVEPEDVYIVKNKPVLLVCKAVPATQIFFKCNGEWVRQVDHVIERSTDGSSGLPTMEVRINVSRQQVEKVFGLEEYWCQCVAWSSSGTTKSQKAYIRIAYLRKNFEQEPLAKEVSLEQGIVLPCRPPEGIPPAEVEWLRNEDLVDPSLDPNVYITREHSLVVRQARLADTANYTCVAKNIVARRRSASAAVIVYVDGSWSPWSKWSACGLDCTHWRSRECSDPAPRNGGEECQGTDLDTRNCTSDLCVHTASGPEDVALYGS
T3 sequence (P43146 other isoform, or with tags, fused parts or gaps): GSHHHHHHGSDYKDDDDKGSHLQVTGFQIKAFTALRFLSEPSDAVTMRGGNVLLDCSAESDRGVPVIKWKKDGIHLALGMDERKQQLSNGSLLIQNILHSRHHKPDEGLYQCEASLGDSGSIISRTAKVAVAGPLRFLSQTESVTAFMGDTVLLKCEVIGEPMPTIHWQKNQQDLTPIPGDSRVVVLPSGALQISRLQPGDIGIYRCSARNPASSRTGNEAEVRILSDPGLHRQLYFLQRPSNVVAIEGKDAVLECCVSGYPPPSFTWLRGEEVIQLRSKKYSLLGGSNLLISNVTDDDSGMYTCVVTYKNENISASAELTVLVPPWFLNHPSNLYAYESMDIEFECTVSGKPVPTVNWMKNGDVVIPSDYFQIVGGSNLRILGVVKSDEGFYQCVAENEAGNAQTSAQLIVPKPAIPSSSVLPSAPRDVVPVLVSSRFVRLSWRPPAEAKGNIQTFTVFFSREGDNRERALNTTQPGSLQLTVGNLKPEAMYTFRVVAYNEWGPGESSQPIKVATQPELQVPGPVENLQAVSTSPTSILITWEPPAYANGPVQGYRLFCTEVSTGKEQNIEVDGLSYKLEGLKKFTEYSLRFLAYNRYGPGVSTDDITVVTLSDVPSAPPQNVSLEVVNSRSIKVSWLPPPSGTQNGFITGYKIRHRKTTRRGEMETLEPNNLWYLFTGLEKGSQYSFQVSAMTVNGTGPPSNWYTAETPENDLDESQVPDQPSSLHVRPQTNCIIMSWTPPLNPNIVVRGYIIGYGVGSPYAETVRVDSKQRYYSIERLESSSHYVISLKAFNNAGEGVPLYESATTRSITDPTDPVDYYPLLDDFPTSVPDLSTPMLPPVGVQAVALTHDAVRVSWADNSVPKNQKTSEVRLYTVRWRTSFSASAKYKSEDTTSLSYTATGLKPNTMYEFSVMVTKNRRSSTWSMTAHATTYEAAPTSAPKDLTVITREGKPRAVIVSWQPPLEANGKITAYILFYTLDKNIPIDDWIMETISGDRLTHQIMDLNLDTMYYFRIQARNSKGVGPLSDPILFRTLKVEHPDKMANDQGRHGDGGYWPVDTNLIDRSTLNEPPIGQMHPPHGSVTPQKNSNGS
T1 sequence (O95185 41-380 limits assumed): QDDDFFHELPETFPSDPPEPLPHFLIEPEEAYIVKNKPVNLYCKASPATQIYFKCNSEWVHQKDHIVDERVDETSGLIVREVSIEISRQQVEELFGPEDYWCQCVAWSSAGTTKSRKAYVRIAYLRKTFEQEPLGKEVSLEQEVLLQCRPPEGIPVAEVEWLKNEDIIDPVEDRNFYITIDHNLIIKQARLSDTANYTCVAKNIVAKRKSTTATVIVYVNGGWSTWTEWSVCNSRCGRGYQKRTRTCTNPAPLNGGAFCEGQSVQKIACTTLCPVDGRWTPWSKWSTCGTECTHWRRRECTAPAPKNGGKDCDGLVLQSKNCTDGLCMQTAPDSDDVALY

B1: ATL_0006178 (antibody, IgG1, V domains shown)
VH: QVQLQESGPGLVKPSETLSLTCTVSGGSISSYFWSWIRQPPGKGLEWIGYIHYSGTTNQNPSLKSRVTISVDKSKNQFSLKLSSVTAADTAVYYCARGRGMATLPFDYWGQGTLVTVSS
VL: not shown
notes: Combination variant of ATL_5262 (T82K, Q67 kept, N58Y); also called ATL_6178; ATL6178
In the case of B1, in assay [1], the EC50 (in general, the midpoint of the concentration-response curve) turned out to be 8 nM. In addition, the binding result in assay [2] is reported as “no binding (tested: up to 100 nM)”; in assay [3], “no binding (tested: up to 100 nM)”; in assay [4], “no binding (tested: up to 100 nM)”; in assay [5], “no binding (tested: up to 100 nM)”; in assay [6], “no binding (tested: up to 100 nM)”; in assay [7], “no binding”.
